Results as given in US20230094162A1.
Like-named read-outs stand apart in the source and are kept apart here.

What was measured:
[1] = target: CD137 expressed on the cell surface (CHO/CD137 cells) (UniProt Q07011); experiment: flow cytometry (FACS) on CHO cells expressing CD137, MFI
[2] = target: PD-L1 expressed on the cell surface (CHO/PD-L1 cells) (UniProt Q9NZQ7); experiment: flow cytometry (FACS) on CHO cells expressing PD-L1, MFI
[3] = target: PD-L1 expressed on the cell surface (CHO/PD-L1 cells) (UniProt Q9NZQ7)
[4] = target: CD137 expressed on the cell surface (CHO/CD137 cells) (UniProt Q07011); experiment: cell-based or functional assay
[5] = target: CD137 expressed on the cell surface (CHO/CD137 cells) (UniProt Q07011); experiment: flow cytometry on CHO/CD137 cells (Surface Binding)

Sequence of CD137 expressed on the cell surface (CHO/CD137 cells) (Q07011 24-255 limits assumed): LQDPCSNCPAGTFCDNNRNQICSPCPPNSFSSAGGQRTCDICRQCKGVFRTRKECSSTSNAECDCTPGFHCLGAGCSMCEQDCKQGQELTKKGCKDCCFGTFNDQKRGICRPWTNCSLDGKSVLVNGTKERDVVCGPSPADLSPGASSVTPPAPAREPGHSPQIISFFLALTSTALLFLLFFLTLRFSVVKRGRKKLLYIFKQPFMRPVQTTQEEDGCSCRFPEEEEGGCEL
Sequence of PD-L1 expressed on the cell surface (CHO/PD-L1 cells) (Q9NZQ7 19-290): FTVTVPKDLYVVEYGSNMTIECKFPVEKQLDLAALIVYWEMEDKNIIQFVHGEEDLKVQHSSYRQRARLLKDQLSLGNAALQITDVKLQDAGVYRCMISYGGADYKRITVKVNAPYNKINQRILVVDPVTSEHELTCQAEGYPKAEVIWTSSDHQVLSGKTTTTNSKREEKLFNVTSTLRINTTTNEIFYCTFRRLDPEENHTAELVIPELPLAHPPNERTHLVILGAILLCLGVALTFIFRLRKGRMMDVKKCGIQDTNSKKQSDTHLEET

## replica of the agonistic anti-CD137 mAb urelumab (r-urelumab) (antibody)
[1]
  EC50 (read off the curve): 0.06 µg/mL

## replica of the anti-PD-L1 antibody atezolizumab (r-atezolizumab)
[2]
  EC50 (read off the curve): 0.01 µg/mL
[3]
  EC50 (read off the curve): 0.3 µg/mL

## non-specific mAb (antibody)
[4]
  Reporter Assay (RLU), 0.08 µg/mL: 1250 RLU
  Reporter Assay (RLU), IgG conc 0.02 µg/mL: 1020 RLU
  Reporter Assay (RLU), IgG conc 0.1 µg/mL: 1240 RLU
[5]
  MFI max: 149 MFI
